{"source": "paper PMC7617774", "target": "SafA_(Ntd1) (Salmonella enterica)", "assay": "crystal structure"}
{"substance": "SafA_(Ntd1) (domain or fragment)", "values": [{"measurement": "stoichiometry N", "result": 2}]}
